Measured values from the nanobody polyreactivity screen of Harvey et al. (2022).

Assay: yeast display, Sf9 membrane polyspecificity reagent, FACS + sequencing; frameworks hold sequencing errors
Summary of the method: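 Using colony PCR, genes from sorted yeast display clones were amplified, then sequenced on MiSeq at 2 × 250 and filtered by CDR length. The clones had been stained with 10% biotinylated, detergent-solubilized Sf9 membrane reagent for 1 hour at 4 °C and sorted by FACS into low and high (top ~1%) gates on anti-HA and streptavidin fluorescence. Polyreactivity labels come from the gate of origin.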

| Sequence | polyreactivity (PSR sort gate) |
| --- | --- |
| QVQLVESGGGLVQAGGSLRLSCAGSGRIFLDKAMGWYRQAPGKERELVAAINGSGGSTYYADSVKGRFTISRDNAKNTVYLQMNSLKPKIPRSITATKRYIQSLWGFDYWGQGTQVTVSS | low polyreactivity |
| QVQLVESGGGLVQAGGSLRLSCAGSGRTFSTYAMGSDRQAPGKERELVAAITRRGGSTYYADSVKGRFTISRDNAKNTVYLQMNSLKPEDTAVYYCARENPGDSYYDYWGQGTQVTVSS | low polyreactivity |
| QVQLVESGGGLVQAGGSLRLSCAGSGSIFGLYAMGWYRQEPGKERELVAAINQSGGSTSYADSVKGRFTISRDNAKNTVYFQMNSLKPEDTAVYYCNRVRLNTEGFDYWGQGTQVTVSS | low polyreactivity |
| QVQLVESGGGLVQAGGSLRLSCAPSGFIFGLYVMGWYRQAPGKERELVAAITTSVGSTYYADSVKGRFTISRDNAKNTVYLQMNSLKPEDTAVYYCAKTSGTIDYDYWGQGTQVTVSS | low polyreactivity |
| QVQLVESGGGLVQAGGSLRLSCAPSGFIFTPYTMGGYRQAPGKERELVAAITDGSSTYYADSVKGRFTISRDNAKNTVYVQMNSLKPEDTAVYYCNADGKPPYISWLYDYWGQGTQVTVST | low polyreactivity |
| QVQLVESGGGLVQAGGSLRLSCAPSGFIFVKYVMGWYRQAPGKERELVATITGSTGGTYYADSVKGRFTISRDNAKNTVYLQMNSLKPEDTAVYYCNKDYYYNPGNVASGYDYWGQGTQVTVSS | low polyreactivity |
| QVQLVESGGGLVQAGGSLRLSCAPSGFIFYANDMGWYRQAPGKERELVARITNSGGSTYYADSVKGRFTISRDNAKNTVYLQMNSLKPEDTAVYYCAAWRRFNYSRRYYYWGQGTQVTLSS | high polyreactivity |
| QVQLVESGGGLVQAGGSLRLSCAPSGFTFSPYTMGWYRQAPGKETELVATIRYDGTSTYYADSVKGRFTISRDNAKNTVYLQMNSLKPEDTAVYYCNADGSAQDIAELDYWGQGTQVTVSS | low polyreactivity |
| QVQLVESGGGLVQAGGSLRLSCAPSGFTFYTYAMGWYRQAPGKERELVAVISRSGGRTNYADSVKGRFTISRDNAKNTVYLQMNSLKPEDTAVYYCNRYDRQRSWSVGYDYWGQGTQVTVSS | high polyreactivity |
| QVQLVESGGGLVQAGGSLRLSCAPSGGTIAPYAMGWYRQASGKESELDATISNSGTSTNYADSVKGRFTISRDNAKNTVYLQMNSLKPEDTAVYYCAKRYHQYRWRGWLWGFDYWGQGTQVTVLS | high polyreactivity |
| QVQLVESGGGLVQAGGSLRLSCAPSGIIFPTYAMGWYRQAPGKERELVAAIRWNGGSTYYADSVKGRFTISRDNAKNTVFLQMTILKPEDTAVYYCAAGYRGSYKYYYWGQGTQVTVSS | high polyreactivity |
| QVQLVESGGGLVQAGGSLRLSCAPSGIILYRYAMGWYRQAPGKERELVAAITYSGGSTYYADSVKGRFTISRDNAKNSVYLQMNSLNPEDTAVYYCAAESRAGRYYVSKPSNYWGQGTQVTVSS | high polyreactivity |
| QVQLVESGGGLVQAGGSLRLSCAPSGIIYRYYGMVWYRQAPGKERELVAVITNSDGSTYYADSVKGRFTISRDNAKNTVYLQQYSLKPEDTAVYYCAARGITSRQRYYWGQGTQVTVSS | low polyreactivity |
| QVQLVESGGGLVQAGGSLRLSCAPSGITFLANTMGGYRQAPGKERELVATITSSGGSTYYADSVKGRFTISRDNAKNTVYLQMNSLKPEDTAGYYCADSDLRYRGNYVYLPSEYWGQGSQVTVSS | low polyreactivity |
| QVQLVESGGGLVQAGGSLRLSCAPSGITFRHYALGGYRQAPGKERELVAAITSRGGSTYYADSVKGRFTISRDNAKNTVYLQMNSLKPEDTAVYYCNKRLYYQRWPAAAREYWGQGTQVTVSS | high polyreactivity |
| QVQLVESGGGLVQAGGSLRLSCAPSGITFWVYVMGWYRQAPGKEREFVADISSGAGTTYYADSVKGRFTISRDNAKNTVYLQMNSLKPEDTAVYYCAARRWWPQWYDYWGQGTQVTVSS | high polyreactivity |
| QVQLVESGGGLVQAGGSLRLSCAPSGITFYGNDMGWYRQAPGKERELVAAISSGGITNYADSVKGRFTISRDNAKNSVYLQMNSLKPEDTAVYYCAKDLLYYHITPDGYTWYLPEDSWGQGTQVTVSS | low polyreactivity |
| QVQLVESGGGLVQAGGSLRLSCAPSGRIFAGYAMGWYRQAHGKERELVAAISWRGTSTYYADSVKGRFTISRDNAKNTVYLQMNSLKPEDTAVYYCAARYTKGMYYWGQGTQVTVSS | high polyreactivity |
| QVQLVESGGGLVQAGGSLRLSCAPSGRIFGAYGMGWYRQAPGKERELVAAISNGGRTSYADSVKGRFTISRDNAKNTVYLQLNSVKPEDTAVYYCAAVYWPWFGAYDYWGHGTQVTVSS | high polyreactivity |
| QVQLVESGGGLVQAGGSLRLSCAPSGRIFRYNAMGWYRQAPGKERELVAAITSGGSTNYADSVKGRFTISRDNAKNTVYLQMNRLKPEDTAVYYCAVTGYRPYAYRRRYPYDYWGQGTQVTVSS | high polyreactivity |
| QVQLVESGGGLVQAGGSLRLSCAPSGRNFTYYDMGRYRQAPGKEREFVAVISDNDSSTYADSVKGRFTISPDNAKNTVYLQMNRLKPEDTAVYYCNAYRQYRSWRYDYWGQGTQVTVSS | high polyreactivity |
| QVQLVESGGGLVQAGGSLRLSCAPSGRTFGYNAMGWYRQAPGKESELVAGISSSDASTYYADSVKGRFTISRDNAKNTVYLQMNSLKPEDTAVYYCAATFGFFYYQYDYWGQGTQVTVSS | low polyreactivity |

| Sequence | polyreactivity (PSR sort gate) |
| --- | --- |
| QVQLVESGGGLVQAGGSLRLSCAPSGRTFGYNGRGWSRQEPGKESELVAAINSGGNTNYADSVKGRFTISRDYAKNTVYLQMNSLKPEDTAVYYCAKYGTLFEPVPNEYDYWGQGTQVTVSS | low polyreactivity |
| QVQLVESGGGLVQAGGSLRLSCAPSGRTFSVHAMGWYRPARGKGRELVAAISWDGGSTYYADSVKGRFTISRDNANNTVYLQMNSLKPEETAVYYCNKDLYYAYDYWGQGTQVTVSS | low polyreactivity |
| QVQLVESGGGLVQAGGSLRLSCAPSGRTFYLNAMGWYRPAPGKERELVAAIRFSGGSTYYADSVKGRFTISRDNAKNTVYLQMNSLKPEDTAVYYCNAGPYLSLYPTVSEYGYWGQGTQVTVSS | low polyreactivity |
| QVQLVESGGGLVQAGGSLRLSCAPSGRTIYHYAMGWYRQAPGKERELVAAITWSGGSTYYADSVKGRVTISRDNAKKTVYLQMNSLKPEDTAVYYWARYPARYGGYYDYDYWGQGTQVTVSS | high polyreactivity |
| QVQLVESGGGLVQAGGSLRLSCAPSGSIFDVNAMGWYRQSPGKESELVAAISDSGGSTYYADSVKGRFTISRDNAKNTVYLQMNSLKPEDTAVYYCNADWSWYNYYEFDYWGQGTQVTVSS | low polyreactivity |
| QVQLVESGGGLVQAGGSLRLSCAPSGSIFFPYAIGWYRQAPGKESELVAAISYSGTSTYYADSVKGRFTISRDNAKNTVYLQMNSLIPEDTAVYYCAAEVIGRYIEYYYWGQGTQVTVSS | high polyreactivity |
| QVQLVESGGGLVQAGGSLRLSCAPSGSIFVYYAMGWYIQAPGKERELVAAITTSGGSTYYADSVKGRFTISRDNAKNTVYLQMNSLKPEDTAVYYCAAELLAWYWSFSVPCPYDYWGQGTQVTVSS | low polyreactivity |
| QVQLVESGGGLVQAGGSLRLSCAPSGSIYTPYAMGWYRPAPGKLRELVADISRSGSTNYADSVKGRFTISLDNAKKTVYLQMNSLKPEDTAVYYCNADFWWHWGTSYDYWGQGTQVTVSS | high polyreactivity |
| QVQLVESGGGLVQAGGSLRLSCAPSGSTFDRNDMGWYRQAPGKERELVAAISRVSSTNYADSVKVRFTISRDNAKNTVYLQMNSLKPADTAVYYCAADRAGSIMNYWGQGTQETVSS | low polyreactivity |
| QVQLVESGGGLVQAGGSLRLSCAPSGSTFFLYVMGWYRQAPGKEREWVAAITSGGRTYYADSVKGRFTISRDNAKNTVYLQMNSLKREDTAVYYCAADVRRVRVGKYDYWGQGPQVTVSS | high polyreactivity |
| QVQLVESGGGLVQAGGSLRLSCAPSGSTFNNYALGGYRQAPGKERELVAAIRSIGGSTYYADSVKGRFTISRDNAKNTVYLQMNSLKPEDTAVYYCAADYFYLKWYEYWGQGTQVTVSS | high polyreactivity |
| QVQLVESGGGLVQAGGSLRLSCAPSGSTLTSNAMGWYRQAPGKERELVAASRSGGSTNYADSVKGRFTISRDNAKNTVYLQMNSLKPEDTAVYYCNKDFLWQGYGYSRVSYDYWGQGTQVTVSS | low polyreactivity |
| QVQLVESGGGLVQAGGSLRLSCASGSTYVYAMGWYRQAPGKERELVATISSTGSTYYADSVKGRFTISRDNAKNTVYLQMNSLKQEDTAVYYCAADVWNNGWIYGSYDEYDYWGQGTQVTVSS | high polyreactivity |
| QVQLVESGGGLVQAGGSLRLSCASSGIIFYPNAMGWYRQAPAKERELVAAITSDGSTYYADSVKGRFTISRDNAMNTVYLQMNRLKPEDTAVYYCAAWEDYGYDYWGQGTQVTVSS | low polyreactivity |
| QVQLVESGGGLVQAGGSLRLSCASSGIILYAYAKGWYRQAPGKERELVAAISRSGGRTYYADSVKGRFTISRDKAKNTVYLQMNSLKPEDTAVYYCATVTRYPDGHRFDYWGQGTQVTVSS | high polyreactivity |
| QVQLVESGGGLVQAGGSLRLSCASSGITFPFYTMGWYRQAPGKERELVAAISSRGTSTYYADSVKGRFTISRDNAKNTVYLQMNSLKPEDTAVYYCKARATPQRAYDSWGQGTQVTVSS | high polyreactivity |
| QVQLVESGGGLVQAGGSLRLSCASSGITFVRYAMAWYRPAPGKERELVAVISRGGITNYADSVKGRFTISRDNAKNTVYFQMNSLKPEDTGVYYCNREKRIRSSGGLYYWGQGTQVSVSS | high polyreactivity |
| QVQLVESGGGLVQAGGSLRLSCASSGLIFGANAMGWYRQAPVKARELVAVITSDGSTDYADSVKGRFIISRDNAKNTVYLQMNSLKPEDTAVYYCATTFYLIFGYTYSAYYYWGHGTQVTVSS | high polyreactivity |
| QVQLVESGGGLVQAGGSLRLSCASSGLIFGRNVMGWYRQAPGKERELVAAISWSGGRTYYADSVKGRFTISRDNAKNTVYLQMNSLKPEDTAVYYCAADDGPGFDYWGQGTQVTVSS | high polyreactivity |
| QVQLVESGGGLVQAGGSLRLSCASSGLIFSIYAMGWYRQAPGKERELVAAIRWSGGSTYYADSVKGRFTISRDNAKNTVYLQMNSLKPEDTAVYYCNADITVYVRIYQYNYCGQGTQVTVSS | low polyreactivity |
| QVQLVESGGGLVQAGGSLRLSCASSGLIFYKNAMGWYRQAPGKVRELVAAISWRDGRTYYADSVKGRFTISRDNAKNTVYLQMNSLKPEDTAVYYCNAVRGITYYDYFYWGQGTQVTVSS | high polyreactivity |
